Measured values published in article PMC10786891, “Massively parallel profiling of RNA-targeting CRISPR-Cas13d”.

T1: EsCas13d, nuclease-dead (Eubacterium siraeum, UniProt B0MS50, R295A;H300A;R849A;H854A)
T1 sequence: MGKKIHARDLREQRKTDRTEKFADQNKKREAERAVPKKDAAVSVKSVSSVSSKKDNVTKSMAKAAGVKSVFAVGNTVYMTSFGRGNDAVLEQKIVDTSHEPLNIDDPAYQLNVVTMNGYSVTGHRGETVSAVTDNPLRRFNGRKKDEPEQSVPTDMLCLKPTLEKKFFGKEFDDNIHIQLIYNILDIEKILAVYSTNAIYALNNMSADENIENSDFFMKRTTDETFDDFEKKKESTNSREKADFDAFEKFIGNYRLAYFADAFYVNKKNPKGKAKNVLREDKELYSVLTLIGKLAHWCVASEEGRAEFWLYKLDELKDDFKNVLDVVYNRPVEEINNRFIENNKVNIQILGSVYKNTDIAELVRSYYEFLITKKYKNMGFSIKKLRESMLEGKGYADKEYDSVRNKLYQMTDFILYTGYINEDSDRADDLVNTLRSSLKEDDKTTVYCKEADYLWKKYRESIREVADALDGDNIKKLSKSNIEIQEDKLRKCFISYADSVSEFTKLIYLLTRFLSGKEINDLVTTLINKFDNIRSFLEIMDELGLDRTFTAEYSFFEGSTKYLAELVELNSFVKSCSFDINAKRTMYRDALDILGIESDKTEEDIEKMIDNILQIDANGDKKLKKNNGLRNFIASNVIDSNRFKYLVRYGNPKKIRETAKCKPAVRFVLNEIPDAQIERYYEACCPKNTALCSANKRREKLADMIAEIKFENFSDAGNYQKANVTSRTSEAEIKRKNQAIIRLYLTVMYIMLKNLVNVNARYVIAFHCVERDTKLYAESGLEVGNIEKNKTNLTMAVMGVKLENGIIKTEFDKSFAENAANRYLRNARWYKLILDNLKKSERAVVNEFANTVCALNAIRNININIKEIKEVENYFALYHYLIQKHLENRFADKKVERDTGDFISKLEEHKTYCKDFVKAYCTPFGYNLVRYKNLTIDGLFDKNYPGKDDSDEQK


Each binder was assayed against T1, EsCas13d, nuclease-dead (assay: crRNA (strand 1, pre-loaded); Mg2+; 40 mM Tris-HCl pH 7.5, 150 mM NaCl, 6 mM MgCl2, 1 mM DTT, 0.1% Tween-20, 0.2 mg/ml BSA; 25 C; 10 min per concentration, then washed). Conditions: tags: His6-TwinStrep-SUMO cleaved; N-terminal SNAP kept (SNAP-Surface 488); label: 3' end held by stalled T7 RNA polymerase.

Binder	Kd
target 1 U3A,U10A (mixed) RNA 1: CACCCGUGCAAAAAUGCAGGGGUCUAAAACUGAGCGGAUAACCUCUCUAUGG RNA 2: GGGAAUGGAUCCACAUCUACGAAUUCGUACCAUAGAGAGGUAAUCCGCACACCGAGAUCGGAAGAGCACACGU	21.2 ± 2.5 nM
target 1 C4G,G12U (mixed) RNA 1: CACCCGUGCAAAAAUGCAGGGGUCUAAAACUGAGCGGAUAACCUCUCUAUGG RNA 2: GGGAAUGGAUCCACAUCUACGAAUUCGUACCAUAGAGAGUUUAUCCGGUCACCGAGAUCGGAAGAGCACACGU	9.5 ± 1.6 nM
target 1 insC 3' of 18,insG 3' of 14 (mixed) RNA 1: CACCCGUGCAAAAAUGCAGGGGUCUAAAACUGAGCGGAUAACCUCUCUAUGG RNA 2: GGGAAUGGAUCCACAUCUACGAAUUCGUACCAUACGAGAGGGUUAUCCGCUCACCGAGAUCGGAAGAGCACACGU	47.4 ± 3 nM
target 1 del5,del8 (mixed) RNA 1: CACCCGUGCAAAAAUGCAGGGGUCUAAAACUGAGCGGAUAACCUCUCUAUGG RNA 2: GGGAAUGGAUCCACAUCUACGAAUUCGUACCAUAGAGAGGUUACCCUCACCGAGAUCGGAAGAGCACACGU	18 ± 0.8 nM
target 1 C2G,A9G (mixed) RNA 1: CACCCGUGCAAAAAUGCAGGGGUCUAAAACUGAGCGGAUAACCUCUCUAUGG RNA 2: GGGAAUGGAUCCACAUCUACGAAUUCGUACCAUAGAGAGGUUGUCCGCUGACCGAGAUCGGAAGAGCACACGU	9.1 ± 0.4 nM
target 1 insG 3' of 14,insA 3' of 10 (mixed) RNA 1: CACCCGUGCAAAAAUGCAGGGGUCUAAAACUGAGCGGAUAACCUCUCUAUGG RNA 2: GGGAAUGGAUCCACAUCUACGAAUUCGUACCAUAGAGAGGGUUAAUCCGCUCACCGAGAUCGGAAGAGCACACGU	30.3 ± 2.3 nM
target 1 insC 3' of 11,insU 3' of 1 (mixed) RNA 1: CACCCGUGCAAAAAUGCAGGGGUCUAAAACUGAGCGGAUAACCUCUCUAUGG RNA 2: GGGAAUGGAUCCACAUCUACGAAUUCGUACCAUAGAGAGGUCUAUCCGCUCAUCCGAGAUCGGAAGAGCACACGU	35 ± 8 nM
target 1 insU 3' of 18,insU 3' of 6 (mixed) RNA 1: CACCCGUGCAAAAAUGCAGGGGUCUAAAACUGAGCGGAUAACCUCUCUAUGG RNA 2: GGGAAUGGAUCCACAUCUACGAAUUCGUACCAUAUGAGAGGUUAUCCUGCUCACCGAGAUCGGAAGAGCACACGU	40.4 ± 2.6 nM
target 1 insG 3' of 19,insA 3' of 17 (mixed) RNA 1: CACCCGUGCAAAAAUGCAGGGGUCUAAAACUGAGCGGAUAACCUCUCUAUGG RNA 2: GGGAAUGGAUCCACAUCUACGAAUUCGUACCAUGAGAAGAGGUUAUCCGCUCACCGAGAUCGGAAGAGCACACGU	73 ± 12 nM
target 1 insC 3' of 11,insG 3' of 1 (mixed) RNA 1: CACCCGUGCAAAAAUGCAGGGGUCUAAAACUGAGCGGAUAACCUCUCUAUGG RNA 2: GGGAAUGGAUCCACAUCUACGAAUUCGUACCAUAGAGAGGUCUAUCCGCUCAGCCGAGAUCGGAAGAGCACACGU	35 ± 9 nM
target 1 C7G,U10G (mixed) RNA 1: CACCCGUGCAAAAAUGCAGGGGUCUAAAACUGAGCGGAUAACCUCUCUAUGG RNA 2: GGGAAUGGAUCCACAUCUACGAAUUCGUACCAUAGAGAGGUGAUGCGCUCACCGAGAUCGGAAGAGCACACGU	20 ± 0.8 nM
target 1 G12A,C22A (mixed) RNA 1: CACCCGUGCAAAAAUGCAGGGGUCUAAAACUGAGCGGAUAACCUCUCUAUGG RNA 2: GGGAAUGGAUCCACAUCUACGAAUUCGUAACAUAGAGAGAUUAUCCGCUCACCGAGAUCGGAAGAGCACACGU	13 ± 0.9 nM
target 1 insC 3' of 9,insU 3' of 5 (mixed) RNA 1: CACCCGUGCAAAAAUGCAGGGGUCUAAAACUGAGCGGAUAACCUCUCUAUGG RNA 2: GGGAAUGGAUCCACAUCUACGAAUUCGUACCAUAGAGAGGUUACUCCGUCUCACCGAGAUCGGAAGAGCACACGU	7.39 ± 0.32 nM
target 1 insC 3' of 10,insC 3' of 9 (mixed) RNA 1: CACCCGUGCAAAAAUGCAGGGGUCUAAAACUGAGCGGAUAACCUCUCUAUGG RNA 2: GGGAAUGGAUCCACAUCUACGAAUUCGUACCAUAGAGAGGUUCACUCCGCUCACCGAGAUCGGAAGAGCACACGU	14.9 ± 0.6 nM
target 1 C7U,U11A (mixed) RNA 1: CACCCGUGCAAAAAUGCAGGGGUCUAAAACUGAGCGGAUAACCUCUCUAUGG RNA 2: GGGAAUGGAUCCACAUCUACGAAUUCGUACCAUAGAGAGGAUAUUCGCUCACCGAGAUCGGAAGAGCACACGU	32.7 ± 2.9 nM
target 1 G5A,G13C (mixed) RNA 1: CACCCGUGCAAAAAUGCAGGGGUCUAAAACUGAGCGGAUAACCUCUCUAUGG RNA 2: GGGAAUGGAUCCACAUCUACGAAUUCGUACCAUAGAGACGUUAUCCACUCACCGAGAUCGGAAGAGCACACGU	50 ± 7 nM
target 1 C4G,A16C (mixed) RNA 1: CACCCGUGCAAAAAUGCAGGGGUCUAAAACUGAGCGGAUAACCUCUCUAUGG RNA 2: GGGAAUGGAUCCACAUCUACGAAUUCGUACCAUAGCGAGGUUAUCCGGUCACCGAGAUCGGAAGAGCACACGU	39 ± 5 nM
target 1 insA 3' of 10,insA 3' of 5 (mixed) RNA 1: CACCCGUGCAAAAAUGCAGGGGUCUAAAACUGAGCGGAUAACCUCUCUAUGG RNA 2: GGGAAUGGAUCCACAUCUACGAAUUCGUACCAUAGAGAGGUUAAUCCGACUCACCGAGAUCGGAAGAGCACACGU	5.79 ± 0.32 nM
target 1 insG 3' of 11,insC 3' of 9 (mixed) RNA 1: CACCCGUGCAAAAAUGCAGGGGUCUAAAACUGAGCGGAUAACCUCUCUAUGG RNA 2: GGGAAUGGAUCCACAUCUACGAAUUCGUACCAUAGAGAGGUGUACUCCGCUCACCGAGAUCGGAAGAGCACACGU	31.4 ± 2.2 nM
target 1 U10A,A20C (mixed) RNA 1: CACCCGUGCAAAAAUGCAGGGGUCUAAAACUGAGCGGAUAACCUCUCUAUGG RNA 2: GGGAAUGGAUCCACAUCUACGAAUUCGUACCCUAGAGAGGUAAUCCGCUCACCGAGAUCGGAAGAGCACACGU	48 ± 4 nM
target 1 G5U,A9G (mixed) RNA 1: CACCCGUGCAAAAAUGCAGGGGUCUAAAACUGAGCGGAUAACCUCUCUAUGG RNA 2: GGGAAUGGAUCCACAUCUACGAAUUCGUACCAUAGAGAGGUUGUCCUCUCACCGAGAUCGGAAGAGCACACGU	27.2 ± 1.8 nM
target 1 insC 3' of 8,insC 3' of 8 (mixed) RNA 1: CACCCGUGCAAAAAUGCAGGGGUCUAAAACUGAGCGGAUAACCUCUCUAUGG RNA 2: GGGAAUGGAUCCACAUCUACGAAUUCGUACCAUAGAGAGGUUAUCCCCGCUCACCGAGAUCGGAAGAGCACACGU	14.5 ± 0.7 nM
target 1 insU 3' of 9,insC 3' of 5 (mixed) RNA 1: CACCCGUGCAAAAAUGCAGGGGUCUAAAACUGAGCGGAUAACCUCUCUAUGG RNA 2: GGGAAUGGAUCCACAUCUACGAAUUCGUACCAUAGAGAGGUUAUUCCGCCUCACCGAGAUCGGAAGAGCACACGU	12.9 ± 1.3 nM
target 1 insC 3' of 12,insU 3' of 2 (mixed) RNA 1: CACCCGUGCAAAAAUGCAGGGGUCUAAAACUGAGCGGAUAACCUCUCUAUGG RNA 2: GGGAAUGGAUCCACAUCUACGAAUUCGUACCAUAGAGAGGCUUAUCCGCUCUACCGAGAUCGGAAGAGCACACGU	12.2 ± 0.8 nM
target 1 insC 3' of 11,insC 3' of 11 (mixed) RNA 1: CACCCGUGCAAAAAUGCAGGGGUCUAAAACUGAGCGGAUAACCUCUCUAUGG RNA 2: GGGAAUGGAUCCACAUCUACGAAUUCGUACCAUAGAGAGGUCCUAUCCGCUCACCGAGAUCGGAAGAGCACACGU	35 ± 7 nM
target 1 A1G,C4A (mixed) RNA 1: CACCCGUGCAAAAAUGCAGGGGUCUAAAACUGAGCGGAUAACCUCUCUAUGG RNA 2: GGGAAUGGAUCCACAUCUACGAAUUCGUACCAUAGAGAGGUUAUCCGAUCGCCGAGAUCGGAAGAGCACACGU	4.5 ± 0.4 nM
target 1 insU 3' of 6,insU 3' of 4 (mixed) RNA 1: CACCCGUGCAAAAAUGCAGGGGUCUAAAACUGAGCGGAUAACCUCUCUAUGG RNA 2: GGGAAUGGAUCCACAUCUACGAAUUCGUACCAUAGAGAGGUUAUCCUGCUUCACCGAGAUCGGAAGAGCACACGU	10.3 ± 0.8 nM
target 1 insC 3' of 11,insC 3' of 1 (mixed) RNA 1: CACCCGUGCAAAAAUGCAGGGGUCUAAAACUGAGCGGAUAACCUCUCUAUGG RNA 2: GGGAAUGGAUCCACAUCUACGAAUUCGUACCAUAGAGAGGUCUAUCCGCUCACCCGAGAUCGGAAGAGCACACGU	26.2 ± 1.7 nM
